The results in this text go back to US20260053913A1 (BIOENTRE, published 2026).

The target of assay [1] is T1, human CTLA4 (cytotoxic T-lymphocyte-associated antigen-4), isoform CTLA4-TM (human, UniProt P16410 36-223).
T1 sequence: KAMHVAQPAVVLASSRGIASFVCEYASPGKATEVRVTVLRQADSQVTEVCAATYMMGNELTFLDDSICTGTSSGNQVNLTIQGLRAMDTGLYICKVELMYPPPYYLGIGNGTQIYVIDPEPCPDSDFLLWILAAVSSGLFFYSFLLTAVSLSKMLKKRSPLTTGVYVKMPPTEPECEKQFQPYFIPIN
Kind of assay: cell-based or functional assay.

The target of assay [2] is human CTLA4 (cytotoxic T-lymphocyte-associated antigen-4), isoform CTLA4-TM (human) (UniProt P16410). The experiment in a line: cell-based or functional assay.

B1: BNI3, mouse IgG2a anti-human CTLA4 (CD152) antibody from BioXcell (antibody, V domains shown)
VH: DVQLQESGPGLVKPSQSLSLTCSVTGYSITSGYVWNWIRQFPGNKLEWMGYISHDGNTNYNPSLKNRISITRDTSKNQFFLKLNSVTTEDSATYYCTRNYGYGGTMDYWGQGTAVSVSS
VL: DIVMTQSQKFMSTSVGDRVSVTCKASQNVGTYVAWYEQKLGQSPKALIFSASYRYTGVPDRFTGSGSGTDFTLTISNVQSEDLAEYFCQQYDSYPLTFGGGTKLEIKR
Take B1: in assay [1], the “biological activity relative to Ipilimumab, Promega anti-CTLA 4 and anti-CTLA 4 + anti-PD1 functional blockade assays” value was < 60 % of Ipilimumab activity; the “half maximum activity concentration, αCTLA 4 functional blockade assay” value was around 50 nM.

B2: L3D10 (antibody, from another filing, V domains shown)
VH: QVQLKESGPGLVAPSQSLSITCTVSGFSLTSYGLSWVRQPPGKGLEWLGVIWYDGNTNFHSALISRLTISKDNSKSQVFLELNSLQTDDTATYYCAKTEGHYYGSNYGYYALDYWGQGTSVTVSS
VL: DIQMTQSPASLSVSVGETVTITCRASENIYSNLAWYQQKQGKSPQLLVYAATNLADGVPSRFSGSGSGTQYSLKINSLQSEDFGTYFCQHLWGTPYTFGGGTKLEIKR
For B2, in assay [2], the maximal activity (ratio RLU), αCTLA 4 functional blockade assay was found to be 15 ratio RLU and the plateau of the titration curve (ratio RLU over background) at 200 nM or greater is 15 to 20 ratio RLU.

B3: BioE2032 (121 HuIgG1) (antibody, V domains shown)
VH: QVQLQESGPGLVKPSQTLSLTCTVSGFSLTSYGVYWVRQPPGKGLEWLGVIWAGGTTNYNSALMSRLTISKDTSKNQVSLKLSSVTAADTAVYYCARGPPHAMMKRGYAMDYWGQGTLVTVSS
VL: DIQMTQSPSSLSASVGDRVTITCSATSSITYMSWYQQKPGKAPKLLIYDTSNLASGVPSRFSGSGSGTDYTLTISSLQPEDFATYYCQQWSSYPLTFGGGTKLEIK
Turning to B3, the “half maximum activity concentration, αCTLA 4 functional blockade assay” value in assay [1] was around 50 nM.
